Experiment: soluble on expression in E. coli; label from the status in PepcDB or PDB records

| Sequence | soluble on expression in E. coli |
| --- | --- |
| MGSDKIHHHHHHMDIQNMPREQLGVCAEGNLHSVYLMFNANDNVESQLRPCIANVAQYIYELTDQYSDSAFNGFVAIGANYWDSLYPESRPEMLKPFPAMQEGNREAPAIEYDLFVHLRCDRYDILHLVANEISQMFEDLVELVEEERGFRFMDSRDLTGFVDGTENPKGRHRQEVALVGSEDPEFKGGSYIHVQKYAHNLSKWHRLPLKKQEDIIGRTKQDNIEYESEDKPLTSHIKRVNLKDENGKSIEILRQSMPYGSLKEQGLMFISTCRTPDHFEKMLHSMVFGDGAGNHDHLMHFTSALTGSSFFAPSLDFLMQFDN | not soluble |
| MATSFRYGHGGSYKSACAVWFDLLPALREGRICITNIHGMQPLEVIEQRLGEKFPDTARLIRISSRNPEGFELWKYFFCWAPIGAFILIDECQQIFSVNAGFKMANIHKRPFTDFEPHLPEGFSELFHSRWLTIDTSSLDNGEIDDCQRTRFDEQGRIIYPENFNNAFMEHRHYNWDIVLLTPDFAQIPKELKGVAELAKQHKGKDGIFFSNRKPRILEHDPTRTVTKPSKDDVVYNLKVPLDVHLLYASTVTGQ | not soluble |
| MAHHHHHHMSRVSVLAGQKPKPKESFKFLRRDEGRLSYSAATAESPSKNAANGADGANINRERRDSKALREAIAYDMRNAKSHDPLGEVVVAVPRKAPPPTRAVSAPPPNTNASSGTEKPAAGAPPQRRQPARAANPKKPEWVDPEIPPSPLLQAPTHTVVERPADNYFETSYSDSHSGGAAALSSGIGRSVSRGSDTNGADLGRYGGLTPRSAAMGAPRYASLKYEESSAAPLSGQDRNYFRRPLYTRDPALGSDAHSPAGSRVREEDELIASLEQEIKAAQKERNHYADARQQLDREKQRFESYRYGARQQMEDERADAGDRRSREQRDAQKDLRATEERFKNVSALLVAERETNRRLSQENDSLRTQLEDLTSTMREAHRIHKAEVARMRRDIDSLTRRNAELLAMAKEQQLQCLEGASASPSTRQSSSSPFSVSLDPSAQRASSASCEGGYDEDNDAAAVGERRASRAAPLAVMDFTPRASSREAAAREKRNRQMQNRMQAEEQAMEERKRHREQYIAGRKREEQEEKTRHRVAVDAAAAATACRRSEEDDLRKAATAAEKVVEERKMSGHPARTPRMQSGALSVKRRPSVSAVHAPVAPKRHHVPTREDLIGDMEEFPTEKFCDDDVVSQTALGDNSNKKEVLYRSGKREIHYANGTVKVVLPSGHTTLRFTNGDVKCTFPSGKSTYWYDAAQTMHTQMPDGVQAFEFRSTGQTEKHLPDGSKEILYPDGIYKMVRPDGSDETFYPDGEPMEE | soluble |
| MLKYMLDTNIAIYVIKRRPIEVLVTFNRYADMMCVSAVTEAELLHGAEKSRQREHNLRQVADFLSRLEVLSYTSKAAGHYGDIRADLERKEKPIGVNDLHIAAHARSEGFILVSNNLREFERVDGLRLENWIT | not soluble |
| MSLRKRIIEVSTDYKILIVDDEEGIINSMKVMLTRSGYFCMGISNPLEAIETLKKEHFDMLILDYIMSPIHGDEVVAKIREFNKDIYILLLTGHKDLAPPLETIKALDIQGYCEKGDKFDQLLLLIESGIKSISQMRTIRQFKDGLNRILQAVPKIYQLQPIGVILEEILQGLMPLVNSKDAFILVDDCNSGEGKIIFKGVGEYDIKAESLVTMLSPELMENIGRARDSKKVLLLDHGIILPLTNEQNKSIGVIYIESSNLGDGIKLLEIYSTQAASSINNAFLHSLINMKKEELDRTYQELRKRYIDTIEALRLTVDAKDIYTRGHSDRVAYYAVKLGEAFGLPEDQLELLKVGGIFHDIGKIGTADDILFKTDKLSYDEYEEIKKHPLKGAYILSAISMFKDVVPLVKYHHERIDGKGYPEGLKGDEIPFLARILTVADAFDAMMSDRKYRSKLSLEETKEQFRLYSGTQFDPQVVEKLFEILENYDLMLEELSKTFTEGHHHHHH | soluble |
| MIEENLKQKIHDKFVAAKKNGHLKVTHAESKKLKDPQTTTQYWVTFAPSLALKPDANKNSDSKAEDPFANPDEELVVTEDLNGDGEYKLLLNKFPVVPEHSLLVTSEFKDQRSALTPSDLMTAYNVLCSLQGDKDDDVTCERYLVFYNCGPHSGSSQDHKHLQIMQMPEKFIPFQDVLCNGKDHFLPTFNAEPLQDDKVSFAHFVLPLPESSDQVDEDLLAMCYVSLMQRALTFFQDWTNESPELTKSYNVLLTKKWICVVPRSHAKSGPPLMLNINSTGYCGMILVKDREKLENLTEDPHLVDKSLLQCGFPNTAGQKPTEYHY | not soluble |
| MSLEDGPVTNPRQEEPQKVVKEEGFARGADVSWLTQMEAEGLKFYTPDENRQEMECMDLLRDYCGVNSIRLRVWVNPKDGWNNMNDVIVKAKRAERLGLRTMIDFHFSDTWADPGHQEMPEAWKELSFDDLKIALSEHVKSVLTALKAVGVTPEWVQVGNETTPGMMLPVGSVDNPEQLTALNNAGYDAVKAICPDAKVIVHLDAGNDQWVYNRMFDILQANGGKYDMIGMSLYPYWAEQEGKTGGWLKVADDCIANIKHVKQKYNKPVMICEIGMPYDQAEACKQLITKMMQADVEGIFYWEPQAPNGYNDGYNLGCFDNNAPTIALDAFKIEGHHHHHH | soluble |
| MGSDKIHHHHHHMNRLRYSVNLSYEILDPTGDFLLIVEAAKTARQSVVSERLALTPPAHAARYTDPLGNRLLRIRANKGPLAIRYEAVVDIDHRLDDGMSLTEVPVAELPFDVLSYLAPSRYCESDRMMEFAMREFGSMRPGYSRVYAIREWVRNHVRFLSRSTNERTSAIDTIVERTGVCRDFSHLMIAICRALSIPARMSSSVDYGADPALGAPDFHAVVEVFLSGGWYLLDPSGVSIPTGLLRIGTGRDAADIPFAAIFGKVESKRPFIEIQPIADPVAGIGLPLATTSAISTW | not soluble |
| PVVLESKQRGPCAMSRLIVKNLPNGMKEERFRQLFAAFGTLTDCSLKFTKDGKFRKFGFIGFKSEEEAQKAQKHFNKSFIDTSRITVEFCKSFGDPAKPRAWSKHAQKPSQPKQPPKDSTTPEIKKDEKKKKVAGQLEKLKEDTEFQEFLSVHRRRAQAATWANDGLDAEPSKGKSKPASDYLNFDSDSGQESEEEGAGEDLEEEASLEPKAAVQKELSDMDYLKSKMVKAGSSSSSEEEESEDEAVHCDEGSEAEEEDSSATPVLQERDSRGAGQEQGMPAGKKRPPEARAETEKPANQKEPTTCHTVKLRGAPFNVTEKNVMEFLAPLKPVAIRIVRNAHGNKTGYIFVDFSNEEEVKQALKCNREYMGGRYIEVFREKNVPTTKGAPKNTTKSWQGRILGENEEEEDLAESGRLFVRNLPYTSTEEDLEKLFSKYGPLSELHYPIDSLTKKPKGFAFITFMFPEHAVKAYSEVDGQVFQGRMLHVLPSTIKKEASEDASALGSSSYKKKKEAQDKANSASSHNWNTLFMGPNAVADAIAQKYNATKSQVFDHETKGSVAVRVALGETQLVQEVRRFLIDNGVSLDSFSQAAAERSKTVILVKNLPAGTLAAELQETFGRFGSLGRVLLPEGGTTAIVEFLEPLEARKAFRHLAYSKFHHVPLYLEWAPVGVFSSAAPQKKKLQDTPSEPMEKDPAEPETVPDGETPEDENPTEEGADNSSAKMEEEEEEEEEEEESLPGCTLFIKNLNFDTTEEKLKEVFSKVGTVKSCSISKKKNKAGVLLSMGFGFVEYRKPEQAQKALKQLQGHVVDGHKLEVRISERATKPAVTLARKKQVPRKQTTSKILVRNIPFQAHSREIRELFSTFGELKTVRLPKKMTGTGTHRGFGFVDFLTKQDAKRAFNALCHSTHLYGRRLVLEWADSEVTLQALRRKTAAHFHEPPKKKRSVVLDEILEQLEGSDSDSEEQTLQL | soluble |
| MAHHHHHHMRLLTHNFLACLKCDTYPLLVTAAEMEEIPVEYDAEFTRRMLARVDYASLRTTFHALREAHESVRGPSHDEGADTAEGALASSELPETMEGADFSDHSAFLRTAHYAMNVVAVRNGTLECPACKTTFSINDFIPNFVPEAK | soluble |
| PSHSGAAIFEKVSGIIAINEDVSPAELTWRSTDGDKVHTVVLSTIDKLQATPASSEKMMLRLIGKVDESKKRKDNEGNEVVPKPQRHMFSFNNRTVMDNIKMTLQQIISRYKDAD | soluble |
| MSLIITGVDVHVVNLPLTSPFRSSFETKTGETRTVVRVTTDDGHVGWGETMWGSPVARLTEQLSSSLIGKSPFALEEFHATHTMVPFFYGYIGYAALAGLDVACWDLMGKITGRPLTDLIGGRVRDTVPITALITRADAPDAPPADLPVALAEHAAKVVAIGGFTAVKLKGTKDVDGDVKIMRALRAVLPDVELRVDPNAAWSVPESIRAGLRMEELDLEYLEDPCWGIDGMARVREKIRIPLCTNMCVVAFEDFAPAMRLGAVDVIHGDVYKWGGEGHHHHHH | not soluble |
| MGLVGLHSGTIDMEFIGVEDHGDEEGKQIAVSVISSGKNADKTEDPDSLIFTGFGGTDMYHGQPCNQKLERLNIPLEAAFRKKSIVRVVRCMKDEKRTNGNIYIYDGTYMITNRWEEEGQNGFIVFKFKLVREPDQKPAFGIWKSIQNWRNGLSIRPGLILEDLSNGAENLKVCLVNEVDKENGPALFRYVTSLIHEVINNIPSMVDRCACGRRSCGSKHVFREKLSVSSSLVISAKKSGNVARFMNHSCSPNVFWQSIAREQNGLWCLYIGFFAMKHIPPLTELRYDYGKSRGGGKKMCLCRTKKCCGSFG | soluble |
| GPGSMYHGNGSVNDAADASFCPQPSPTRPSREAPPSAPPPTGRVTRTQALARLLRGEGSSTHTKPVRAPGNDAKELKVSETRKECVVGEVQADAPPKKSEGTSSHAAVPLAASATITPDDRDDIGAALQEIGDASRRHRRHSHDAEGTSGDAVRDDASDGGAANMSDDYNGDDNSESTCSARRSGAGSAPAEGFSAHPTHARARGRAVSTRQAANALPRMLALQRSFEAEAKHLYEYCGTHVVEWPTLAVEWIPDRAFVDPERDYTLQYLAIGTQAHPLSGAANAVKVMEVAVPVTAAKDVMYGLYGDDDTAGVEAVDPAREGGIDPGKRFANVKGHFHCEQTLTMDAAVLKIRAMPAETNVIAVKTASGFIGVYNLLQDLTQNEAGRTVPDALLCGHRRGGFGLSWNALKPGFIASAADDGYVNYYDVSHRLTIDVREASDVDPALTGPETQPLERLVGHRDIVTDCCWHSSQGHLLASSSMDGDARLWDIRMSAGSSTIPSAHASGATAAQFHPIGAFQLATAGAEGSISLWDIRRTADPVWELNYHGRPITGLQWSPFCETVMLSYGADGRVVLWDLAKTTLPLGYSEDQLAPPEVSFVHIGHVGRVTDASWNSSTTEEWLLASADTTNGVHVYRPLVNVVQDYRAYQH | not soluble |
| MAHHHHHHMPHHAQDLRHDFTSGILNCHESCAVCLDACLCMYCTASAHHNFLMNDTEGLYLPVCWGLFCVDVGLSAVSSYLPSSLHFHTYFMRSAIRRRYNLHSA | soluble |
| MNQKMIIGNAEAICLPELGITHLEARIDTGAQTSSLHVDNIDCFEKDGQSYVAFDLHPDVYHLEQVVRCTAKLKANRKVKSSNGTFEHRCVITTMLRLGDQEWPIDITLTNREKMTYMMLLGRQGMADKVLVDPSQSHLLAS | not soluble |
| GMSSNLHGIAIGIERSQDDFYLAFKAVGKLTHEDYEQMTPLLESALAGIKTPEIVALIDITELDGLSLHAAWDDLKLGLKHGKEFKRVAIIGQGELQEWATRVANWFTPGEFKFFEDKRDALDWLC | soluble |
| MSDATYADAVIMEMNGRDIEIVSIKPQTTTGRKPVKTMNRNGRVNGYCDGVTEHKLSVTAAIPIDGTEIDWDNITKAKITIYPINDEDRRTSYLDCFTVDTGEQYEVDNEARIDIEMIALHKIKE | not soluble |

From the DeepSol protein solubility set
